{"source": "patent US20100003258A1", "about": "(AVEO PHARMACEUTICALS, published 2010)", "binders": {"B1": {"name": "Chimeric 15D8 (antibody, human IgG1, kappa)", "heavy": "not shown", "light": "QIVLTQSPALMSASPGEKVTMTCSASSSVSYMYWYQQKPRSSPKPWIYLTSYLASGVPARFSGSGSGTSYSLTISSMEAEDAATYYCQQWSSYPLTFGAGTKLELKRTVAAPSVFIFPPSDEQLKSGTASVVCLLNNFYPREAKVQWKVDNALQSGNSQESVTEQDSKDSTYSLSSTLTLSKADYEKHKVYACEVTHQGLSSPVTKSFNRGEC", "notes": "Mouse variable regions with human IgG1 and human kappa constant regions; made in 293T cells; also called chimeric 15D8 antibody"}, "B2": {"name": "Humanized 15D8 (antibody, human IgG1, kappa, V domains shown)", "VH": "EVQLVQSGAEVKKPGESLKISCKGSGYSFTSYNMYWVRQMPGKGLEWMGYIDPYNGGTSYNQKFKGKATLTVDKSISTAYLQWSSLKASDTAMYYCAREGGNYEAWFAYWGQGTLVTVSS", "VL": "DIQLTQSPSSLSASVGDRVTITCSASSSVSYMYWFQQKPGKAPKPLIYLTSYLASGVPSRFSGSGSGTDFTLTISSLQPEDFATYYCQQWSSYPLTFGGGTKVEIKR", "notes": "Humanized variable regions with human IgG1 and human kappa constant regions; made in 293T cells; also called Hu15D8; humanized 15D8 antibody"}}, "molecular_target": "T1, recombinant human FGFR3 IIIc Fc fusion protein (human, UniProt P22607 23-375)", "T1 construct": "Bought reagent; also called rhFGFR3 IIIc Fc; not shown: Fc fragment (removable by Factor Xa)", "T1 sequence (looked up)": "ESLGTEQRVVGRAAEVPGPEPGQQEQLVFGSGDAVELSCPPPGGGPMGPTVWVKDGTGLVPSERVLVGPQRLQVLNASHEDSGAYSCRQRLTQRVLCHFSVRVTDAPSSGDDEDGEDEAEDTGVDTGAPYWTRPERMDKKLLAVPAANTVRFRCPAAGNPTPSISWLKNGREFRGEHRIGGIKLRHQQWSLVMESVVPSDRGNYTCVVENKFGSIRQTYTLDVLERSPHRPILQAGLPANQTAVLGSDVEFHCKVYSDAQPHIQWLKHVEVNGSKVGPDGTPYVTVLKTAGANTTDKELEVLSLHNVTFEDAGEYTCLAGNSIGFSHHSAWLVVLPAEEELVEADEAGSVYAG", "test": "kinetic exclusion assay (KinExA), antibody and rhFGFR3 IIIc Fc in solution, room temperature", "description": "The binding affinities of monoclonal 15D8, chimeric 15D8, and humanized 15D8 antibodies for recombinant human FGFR3 IIIc Fc fusion protein was measured using a kinetic exclusion assay, KinExA® technology (Sapidyne Instruments, Inc.). First, beads were prepared for the purpose of detecting anti-FGFR3 antibody that is unbound to FGFR3 IIIc Fc. This was done by adding 1 ml recombinant human FGFR3IIIc Fc (R&D Systems, Inc.) 10 ug/ml in PBS to 200 mg polymethyl methacrylate (PMMA) hard beads. The suspension was mixed and rotated for two hours at room temperature. Next, the mixture was centrifuged and supernatant was discarded. The bead pellet was rinsed once with 1 ml BSA 10 mg/ml in PBS by incubation for 1 hour at room temperature with rotation. The beads were resuspended in 27 ml PBS with 0.02% NaN₃. Next, a fixed concentration of anti-FGFR3 antibody (0.5 nM) was incubated in solution with a series of FGFR3 IIIc Fc concentrations (started with 50 nM (in PBS BSA (1 mg/ml)) and serially diluted 1:2 in PBS BSA(1 mg/ml) to obtain 50 to 0.0122 nM FGFR3 III Fc) at room temperature for at least 4 hours to allow equilibrium to be reached. By measuring the amount of anti-FGFR3 antibody that is not bound to FGFR3 IIIc Fc, the KD was determined. Unbound anti-FGFR3 antibody was detected by allowing the anti-FGFR3 antibody/FGFR3 IIIc Fc solution to flow through the FGFR3 IIIc Fc PMMA beads. The anti-FGFR3 antibody captured by these beads was then detected with Cy5-conjugated anti-human secondary antibody 0.3 ug/ml (Jackson ImmunoResearch) or Cy5-conjugated anti-mouse secondary antibody (Jackson ImmunoResearch) 0.5 ug/ml in PBS BSA 1 mg/ml. The detected signal for captured anti-FGFR3 antibody is directly proportional to the remaining free binding sites, thus allowing KD determination. The experiments were repeated, varying the concentrations of anti-FGFR3 antibody or FGFR3 III Fc used in solution, and the KD was calculated with the KinExA® software using n-curve analysis.", "data": [{"binder": "B1", "values": [{"measurement": "Kd", "result": 0.0503, "unit": "nM"}]}, {"binder": "B2", "values": [{"measurement": "Kd", "result": 0.0772, "unit": "nM"}]}]}
